Like-named read-outs stand apart in the source and are kept apart here.
Experiments:
[1] = target: T1, MsePCNA1:MsePCNA2 heterodimer (Metallosphaera sedula, UniProt A4YCS6 1-247; A4YHP5 1-244); test: SPR; Biacore; MsePCNA2 or SsoPCNA2 immobilised on CM5, 1 μM MsePCNA1 or SsoPCNA1 applied, then MsePCNA3 or SsoPCNA3 injected at various concentrations; plateau signal fitted to a Langmuir isotherm; 10 mM HEPES-HCl pH 7.4, 150 mM NaCl
T1 construct: MsePCNA1 (Msed_0051), PCNA homologue of Metallosphaera sedula; as m1; MsePCNA2 (Msed_1792), PCNA homologue of Metallosphaera sedula; as m2; In SPR formed on the chip: MsePCNA2 immobilised on CM5, then 1 μM MsePCNA1 applied; In the pull-down and SEC formed in the mixture; Tag removal is said for the pull-down only; also called immobilised MsePCNA2 with MsePCNA1; MsePCNA1 and MsePCNA2 together; …
T1 sequence (looked up) 1: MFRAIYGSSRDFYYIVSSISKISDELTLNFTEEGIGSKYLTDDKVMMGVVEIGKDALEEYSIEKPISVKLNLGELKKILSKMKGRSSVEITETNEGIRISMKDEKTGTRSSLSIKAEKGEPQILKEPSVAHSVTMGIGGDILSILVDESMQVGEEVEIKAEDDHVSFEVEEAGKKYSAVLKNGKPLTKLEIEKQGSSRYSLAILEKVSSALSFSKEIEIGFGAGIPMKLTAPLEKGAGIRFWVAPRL
T1 sequence (looked up) 2: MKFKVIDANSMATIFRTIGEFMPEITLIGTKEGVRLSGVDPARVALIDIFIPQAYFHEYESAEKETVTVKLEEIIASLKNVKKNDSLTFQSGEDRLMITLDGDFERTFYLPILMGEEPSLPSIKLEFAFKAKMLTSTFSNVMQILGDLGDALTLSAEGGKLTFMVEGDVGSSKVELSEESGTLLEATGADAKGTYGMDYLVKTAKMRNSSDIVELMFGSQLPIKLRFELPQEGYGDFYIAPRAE

[2] = target: T2, SsoPCNA1:MsePCNA2 complex (Sulfolobus solfataricus | …, UniProt P57766 1-249; A4YHP5 1-244); test: as above
T2 construct: SsoPCNA1, PCNA subunit 1 of Sulfolobus solfataricus; as m4; MsePCNA2 (Msed_1792), PCNA homologue of Metallosphaera sedula; as m2; Formed on the SPR chip: MsePCNA2 immobilised on CM5, then 1 μM SsoPCNA1 applied; also called immobilised MsePCNA2 that tethered SsoPCNA1
T2 sequence (looked up) 1: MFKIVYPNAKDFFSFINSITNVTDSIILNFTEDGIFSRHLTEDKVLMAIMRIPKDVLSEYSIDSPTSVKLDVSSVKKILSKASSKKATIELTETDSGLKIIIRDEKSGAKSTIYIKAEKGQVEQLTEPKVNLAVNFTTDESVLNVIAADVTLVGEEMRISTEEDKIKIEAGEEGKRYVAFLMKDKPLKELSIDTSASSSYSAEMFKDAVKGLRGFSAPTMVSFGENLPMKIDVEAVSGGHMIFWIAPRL
T2 sequence (looked up) 2: T1 sequence (looked up) 2

[3] = target: SsoPCNA1:SsoPCNA2 heterodimer (Sulfolobus solfataricus) (UniProt P57766); test: as above
[4] = target: T3, SsoPCNA1 (Sulfolobus solfataricus, UniProt P57766 1-249); test: SPR; Biacore; about 350 RU of MsePCNA2 or SsoPCNA2 immobilised on Sensor Chip CM5; MsePCNA1 or SsoPCNA1 injected (2.5, 5, 10, 20, 40 nM), kinetic fit; 10 mM HEPES-HCl pH 7.4, 150 mM NaCl; conditions: both partners purified
T3 construct: SsoPCNA1, PCNA subunit 1 of Sulfolobus solfataricus; also called S. solfataricus PCNA1
T3 sequence (looked up): T2 sequence (looked up) 1

[5] = target: T4, MsePCNA1 (Metallosphaera sedula, UniProt A4YCS6 1-247); test: as above; conditions: both partners purified
T4 construct: MsePCNA1 (Msed_0051), PCNA homologue of Metallosphaera sedula; 'His6-tag-removed' is said for the pull-down only; also called Msed_0051; M. sedula PCNA homologue 1
T4 sequence (looked up): T1 sequence (looked up) 1

[6] = target: T5, SsoPCNA2 (Sulfolobus solfataricus); test: SPR; 5 nM MsePCNA1
T5 chain: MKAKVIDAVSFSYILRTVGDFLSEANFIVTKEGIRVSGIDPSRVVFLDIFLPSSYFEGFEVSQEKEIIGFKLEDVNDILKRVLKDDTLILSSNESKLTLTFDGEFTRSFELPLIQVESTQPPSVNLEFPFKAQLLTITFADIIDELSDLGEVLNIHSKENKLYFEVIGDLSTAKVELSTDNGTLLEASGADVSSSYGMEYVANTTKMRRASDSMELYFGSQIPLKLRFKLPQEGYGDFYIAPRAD

[7] = target: T6, MsePCNA2 (Metallosphaera sedula, UniProt A4YHP5 1-244); test: SPR; 5 nM MsePCNA1
T6 chain: T1 sequence (looked up) 2

[8] = target: T5, SsoPCNA2; test: SPR; 2.5 nM MsePCNA1
[9] = target: T6, MsePCNA2; test: SPR; 2.5 nM MsePCNA1
[10] = target: T5, SsoPCNA2; test: SPR; 40 nM MsePCNA1
[11] = target: T6, MsePCNA2; test: SPR; 40 nM MsePCNA1
[12] = target: T6, MsePCNA2; test: SPR; 10 nM MsePCNA1
[13] = target: T5, SsoPCNA2; test: SPR; 10 nM MsePCNA1
[14] = target: T6, MsePCNA2; test: SPR; 10 nM MsePCNA1
[15] = target: T5, SsoPCNA2; test: SPR; 50 nM MsePCNA1
[16] = target: T6, MsePCNA2; test: SPR; 1.25 nM MsePCNA1
[17] = target: T6, MsePCNA2; test: SPR; 40 nM MsePCNA1
[18] = target: T5, SsoPCNA2; test: SPR; 2.5 nM MsePCNA1
[19] = target: T6, MsePCNA2; test: SPR; 2.5 nM MsePCNA1
[20] = target: T5, SsoPCNA2; test: SPR; Biacore; about 350 RU of MsePCNA2 or SsoPCNA2 immobilised on Sensor Chip CM5; MsePCNA1 or SsoPCNA1 injected (2.5, 5, 10, 20, 40 nM), kinetic fit; 10 mM HEPES-HCl pH 7.4, 150 mM NaCl
[21] = target: T5, SsoPCNA2; test: SPR; 20 nM MsePCNA1
[22] = target: T6, MsePCNA2; test: SPR; 20 nM MsePCNA1
[23] = target: T6, MsePCNA2; test: SPR; 1.25 nM MsePCNA1
[24] = target: T5, SsoPCNA2; test: SPR; 5 nM MsePCNA1
[25] = target: T6, MsePCNA2; test: SPR; 20 nM MsePCNA1

SsoPCNA3 (natural protein)
Kd [1]: 190 nM
Kd [2]: 170 nM
Kd [3]: 200 nM

B1: MsePCNA2 (natural protein, Metallosphaera sedula, UniProt A4YHP5 1-244, looked up)
chain: T1 sequence (looked up) 2
notes: MsePCNA2 (Msed_1792), PCNA homologue of Metallosphaera sedula; 'His6-tag-removed' is said for the pull-down only; also called Msed_1792; M. sedula PCNA homologue 2
Kd [4]: 1.8 nM
koff [4]: 0.00044 s⁻¹
kon [4]: 270000 M⁻¹ s⁻¹
Kd [5]: 0.33 nM
koff [5]: 8.9e-05 s⁻¹
kon [5]: 280000 M⁻¹ s⁻¹

B2: MsePCNA1 (natural protein)
chain: T1 sequence (looked up) 1
koff [6]: 0.00132 s⁻¹
koff [7]: 0.00011 s⁻¹
Kd [8]: 6.81 nM
Kd [9]: 0.396 nM
Kd [10]: 36 nM
Kd [11]: 0.253 nM
koff [12]: 7.99e-05 s⁻¹
Kd [13]: 7.02 nM
Kd [14]: 0.249 nM
Kd [15]: 27.5 nM
Kd [16]: 0.531 nM
koff [17]: 4.29e-05 s⁻¹
koff [18]: 0.00134 s⁻¹
koff [19]: 0.000121 s⁻¹
Kd [20]: 1.6 nM
koff [20]: 0.0012 s⁻¹
kon [20]: 130000 M⁻¹ s⁻¹
Kd [21]: 12.9 nM
Kd [22]: 0.215 nM
koff [23]: 0.000128 s⁻¹
Kd [24]: 6.37 nM
koff [25]: 5.79e-05 s⁻¹

B3: MsePCNA3 (natural protein, Metallosphaera sedula, UniProt A4YIY6 1-245, looked up)
chain: MRIAYANAMDFKTVIEALSKLIDEVTFTFTSSGLDVVAVDRAHISLIKLHFPKEAFEEFDVEDQFRFGFNTQYMLKVMASAKRKEKIEMESREESEIVIRMLGEPPREFTIRNIEVPIQELPELKLDFDVKAKITSGGFKKAVSEIATVSDSVEIDATEMEIKLRSKESTEIEVEFSKEMGGLQEIEVKKPSVSSYPSDYLEDVLVLTRLSGFLNLLFSEQKPLQLEFNMDNGGSVVYLLAPNVG
notes: MsePCNA3 (Msed_2250), PCNA homologue of Metallosphaera sedula; 'His6-tag-removed' is said for the pull-down only; also called Msed_2250; M. sedula PCNA homologue 3
Kd ([1]; both partners purified): 43 nM
Kd ([2]; both partners purified): 380 nM

Reference: article PMC4894655, “Three proliferating cell nuclear antigen homologues from Metallosphaera sedula form a head-to-tail heterotrimer” (Scientific Reports, 2016)
